pKd: −log10 of the molar value.
Target: T1, human CXCR2 receptor (Homo sapiens, UniProt P25025)
T1 construct: expressed in transfected cells; host or cells: HEK293, stably transfected geneticin-resistant clones, vector RcCMV; membranes purified by sucrose gradient
T1 sequence (P25025 1-360): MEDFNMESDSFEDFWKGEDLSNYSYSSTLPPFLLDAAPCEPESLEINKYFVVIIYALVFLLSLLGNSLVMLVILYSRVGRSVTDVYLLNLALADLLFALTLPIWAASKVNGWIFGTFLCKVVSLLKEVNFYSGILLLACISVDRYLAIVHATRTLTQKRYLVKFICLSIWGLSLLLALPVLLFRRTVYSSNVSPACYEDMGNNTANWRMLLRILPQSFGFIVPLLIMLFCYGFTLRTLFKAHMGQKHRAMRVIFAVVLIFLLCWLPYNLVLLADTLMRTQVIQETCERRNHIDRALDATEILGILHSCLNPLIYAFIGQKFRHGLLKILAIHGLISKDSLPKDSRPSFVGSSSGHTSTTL
Assay: Potency (pIC50) ligand binding assay, inhibition of [125I]IL-8 binding
Details: human CXCR2 membranes; read-out: Kd (equilibrium dissociation constant) determined for IL-8
Protocol: Potency (pIC50)—Ligand Binding Assay
The potency of antagonists at the human CXCR2 receptor was determined in vitro by quantifying their ability to inhibit specific binding of the CXCR2 radioligand, [^125I]interleukin-8 (IL-8), from membranes of HEK293 cells transfected with the human recombinant CXCR2 receptor.
Commercially sourced materials were obtained as follows: U-bottomed 96-well plates (3799) and 225 cm^2 vented cap culture flasks (3001) from Costar, Corning, Kent, UK. Multiscreen filter plates (0.45 μm; MAHV N45 50), vacuum manifold and pump (XF54 230 50) from Millipore, Watford, UK. N-[2-hydroxyethyl]piperazine-N′-[2ethanesulphonic acid] (HEPES; H-3375), ethylene diamine-tetraacetic acid (EDTA; E1644), magnesium chloride (M-9272), gelatin (G9382), dithiothreitol (DTT; D06052), sodium chloride (S3160/63), sodium hydroxide (B6506), bacitracin (B0125), inactivated foetal calf serum (FCS; CR0848) and DMSO Fluka Chemika (41648) from Sigma, Poole, UK. MicroScint-O (6013611) Packard BioScience, Pangboume, UK. Complete protease inhibitor cocktail tablets (1836145) from Boehringer s Mannheim, GmbH, Germany. Human recombinant [^125I]IL-8 74 TBq/mmol, 0.712 MBq/ml (IM249) from Amersham, Horsham UK. All other tissue culture reagents were purchased from Invitrogen, Paisley, Scotland, UK. All other chemical reagents were analytical grade from Fisher Scientific, Loughborough, UK
HEPES-buffered salt solution pH 7.4 containing HEPES (10 mM), potassium chloride (2.7 mM), sodium chloride (137 mM), potassium hydrogen phosphate (0.4 mM), calcium chloride (1.8 mM), magnesium chloride (1 mM), gelatin (0.1% (w/v)) and bacitracin (100 μg/ml).
HEPES-buffered Tyrode's solution pH 7.4 containing HEPES (10 mM), potassium chloride (2.7 mM), sodium chloride (137 mM), potassium hydrogen phosphate (0.4 mM), glucose (11 mM).
Hypotonic buffer: 3:1 mix of water: HEPES-buffered Tyrode's solution.
HEK293 cells were transfected with human CXCR2 (EMBL L19593) cDNA, previously cloned into the eukaryotic expression vector RcCMV. Cloned cell-lines were generated from stably-transfected geneticin-resistant populations. Cells were routinely grown to approximately 80% confluence in DMEM medium containing 10% (v/v) foetal calf serum and glutamine (2 mM) in a humidified incubator at 37° C., 5% CO2. Cells were harvested from flasks using Accutase™ at 37° C. for 3 to 5 minutes and resuspended on ice in hypotonic buffer at a density of 2×10^7 cells/mL. Membranes were prepared on ice by homogenisaton using a polytron tissue homogenizer set at 22000 rpm. The membrane fraction was purified by sucrose gradient centrifugation where homogenised cells were layered onto 41% (w/v) sucrose solution then centrifuged at 140000 g for 1 hour at 4° C. The membrane fraction was harvested at the interface, diluted 4-fold with HEPES-buffered Tyrode's solution and centrifuged at 100000 g for 20 minutes at 4° C. The membrane pellet was re-suspended at 1×10^8 cell equivalents/mL in HEPES-buffered Tyrode's solution and subsequently stored in aliquots at −80° C. All buffers used for membrane preparation and storage were made in the presence of 1 mM DTT and Complete Protease Inhibitor™ cocktail tablets, made up to manufacturers instructions.
Assays were performed in HEPES-buffered salt solution in 96-well plates. [^125I]IL-8 was used at a final concentration of 0.06 nM, pre-diluted from a 9.6 nM stock. The final DMSO concentration in the assay was 1% (v/v). Test compounds were prepared by serial dilution in DMSO followed by a ten-fold dilution into HEPES-buffered salt solution to give a working solution containing compound and 10% DMSO. The control for total binding (B0) of [^125I]IL-8 was determined in the absence of compound. The control for non-specific binding (NSB) was determined by measuring [^125I]IL-8 binding in the presence of (1R)-5-[[(3 -chloro-2-fluorophenyl)methyl]thio]-7-[[2-hydroxy-1-methylethyl]amino]thiazolo[4,5-d]pyrimidin-2(3H)-one dihydrate, sodium salt at 1 μM final concentration. […]

pKd: 8.92
Substance: IL-8: interleukin-8, CXCR2 ligand, used as the human recombinant [125I] radioligand

From patent publication US20100016275A1, “NOVEL COMPOUND 395” (priority 2008, published 2010)
